How the values were obtained:
[1] = target: EEEV PE6 virus-like particle (VLP) (Eastern equine encephalitis virus, strain PE6); assay: BLI
[2] = target: EEEV E2 domain B (Eastern equine encephalitis virus); assay: BLI

Substance | Kd [1] [nM] | Kd [2] [nM]
S. vulgaris VLDLR LA1-8-Fc (Fc fusion) | 11 | –
VLDLR LA1-2-Fc (Fc fusion) | 505 | –
VLDLR LA1-3-Fc (Fc fusion) | 363 | –
VLDLR LA1-8-Fc (Fc fusion) | 2.9 | 1400
VLDLR LA2-3-Fc (Fc fusion) | 1800 | –
VLDLR LA2-4-Fc (Fc fusion) | 1100 | –
VLDLR LA2-5-Fc (Fc fusion) | 42.5 | –
VLDLR LA3-4-Fc (Fc fusion) | 3900 | –
VLDLR LA3-5-Fc (Fc fusion) | 32.3 | –
VLDLR LA3-6-Fc (Fc fusion) | 71.5 | –
VLDLR LA4-5-Fc (Fc fusion) | 11900 | –
VLDLR LA4-6-Fc (Fc fusion) | 2300 | –
VLDLR LA5-6-Fc (Fc fusion) | 4200 | –

Source: doi:10.1101/2023.11.30.569340
